Measured values reported in PMC11116822, “Nuclear factor Y-A3b binds to the SINGLE FLOWER TRUSS promoter and regulates flowering time in tomato”.

T1: SlNF-YA3b (MBP-6His fusion) (Solanum lycopersicum (tomato) cv. AC)
T1 chain: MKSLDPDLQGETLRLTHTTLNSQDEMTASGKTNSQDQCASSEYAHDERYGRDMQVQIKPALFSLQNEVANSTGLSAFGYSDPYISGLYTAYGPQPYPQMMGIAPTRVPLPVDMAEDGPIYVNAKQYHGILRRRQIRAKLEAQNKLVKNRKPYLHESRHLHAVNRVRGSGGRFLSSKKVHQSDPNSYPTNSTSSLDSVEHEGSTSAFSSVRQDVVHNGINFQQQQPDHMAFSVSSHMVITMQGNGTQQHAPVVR


Columns and labels:
[1] = target: T1, SlNF-YA3b (MBP-6His fusion); assay: EMSA; EMSA on non-denaturing gels, FAM probes; buffer, salt, pH and temperature not stated; details: protein: recombinant; tags: MBP; 6xHis; label: FAM on forward strand (probe); blunt
[2] = target: T1, SlNF-YA3b (MBP-6His fusion); assay: competition; 10- and 30-fold excess vs FAM box 7; EMSA on non-denaturing gels, FAM probes; buffer, salt, pH and temperature not stated; details: protein: recombinant; tags: MBP; 6xHis; blunt
[3] = target: T1, SlNF-YA3b (MBP-6His fusion); assay: competition; 10- and 30-fold excess vs FAM box 6; EMSA on non-denaturing gels, FAM probes; buffer, salt, pH and temperature not stated; details: protein: recombinant; tags: MBP; 6xHis; blunt
[4] = target: T1, SlNF-YA3b (MBP-6His fusion); assay: competition; 10- and 30-fold excess vs FAM box 4; EMSA on non-denaturing gels, FAM probes; buffer, salt, pH and temperature not stated; details: protein: recombinant; tags: MBP; 6xHis; blunt
[5] = target: T1, SlNF-YA3b (MBP-6His fusion); assay: competition; 10- and 30-fold excess vs FAM box 2; EMSA on non-denaturing gels, FAM probes; buffer, salt, pH and temperature not stated; details: protein: recombinant; tags: MBP; 6xHis; blunt
[6] = target: T1, SlNF-YA3b (MBP-6His fusion); assay: competition; 10- and 30-fold excess vs FAM box 5; EMSA on non-denaturing gels, FAM probes; buffer, salt, pH and temperature not stated; details: protein: recombinant; tags: MBP; 6xHis; blunt
[7] = target: T1, SlNF-YA3b (MBP-6His fusion); assay: competition; 10- and 30-fold excess vs FAM box 1; EMSA on non-denaturing gels, FAM probes; buffer, salt, pH and temperature not stated; details: protein: recombinant; tags: MBP; 6xHis; blunt
[8] = target: T1, SlNF-YA3b (MBP-6His fusion); assay: competition; 10- and 30-fold excess vs FAM box 3; EMSA on non-denaturing gels, FAM probes; buffer, salt, pH and temperature not stated; details: protein: recombinant; tags: MBP; 6xHis; blunt

Binder	binding result [1]	other results
SFT-box7 (dsDNA) DNA 1: AGTTAGATCAGGCCGGCCCAATAGACCTAATCCATAGTG DNA 2: CACTATGGATTAGGTCTATTGGGCCGGCCTGATCTAACT	binds	–
SFT-box7-m (dsDNA) DNA 1: AGTTAGATCAGGCCGGCGGGGGAGACCTAATCCATAGTG DNA 2: CACTATGGATTAGGTCTCCCCCGCCGGCCTGATCTAACT	–	binding result [2]: no binding
SFT-box6-m (dsDNA) DNA 1: CCCTTCACCTTAGCATCAAAAAATAGGATTTACTACGAG DNA 2: CTCGTAGTAAATCCTATTTTTTGATGCTAAGGTGAAGGG	–	binding result [3]: no binding
SFT-box6 (dsDNA) DNA 1: CCCTTCACCTTAGCATCACCAATTAGGATTTACTACGAG DNA 2: CTCGTAGTAAATCCTAATTGGTGATGCTAAGGTGAAGGG	binds	–
SFT-box4-m (dsDNA) DNA 1: TTAAATTATGTTTTCTTGGGGGGGGTTTCATTCCTTATTTA DNA 2: TAAATAAGGAATGAAACCCCCCCCAAGAAAACATAATTTAA	–	binding result [4]: no binding
SFT-box4 (dsDNA) DNA 1: TTAAATTATGTTTTCTTGATTGGGGTTTCATTCCTTATTTA DNA 2: TAAATAAGGAATGAAACCCCAATCAAGAAAACATAATTTAA	binds	–
SFT-box2 (dsDNA) DNA 1: TAGGGGTAAGGGTAAAATATTGGAAAAATCATTTAAATAT DNA 2: ATATTTAAATGATTTTTCCAATATTTTACCCTTACCCCTA	binds	–
SFT-box2-m (dsDNA) DNA 1: TAGGGGTAAGGGTAAAATAAAAAAAAAATCATTTAAATAT DNA 2: ATATTTAAATGATTTTTTTTTTATTTTACCCTTACCCCTA	–	binding result [5]: no binding
SFT-box5-m (dsDNA) DNA 1: ATGTTTTATCATAAAAATAAAAAATGTTTTTAATATTAATC DNA 2: GATTAATATTAAAAACATTTTTTATTTTTATGATAAAACAT	–	binding result [6]: no binding
SFT-box5 (dsDNA) DNA 1: ATGTTTTATCATAAAAATATTGGATGTTTTTAATATTAATC DNA 2: GATTAATATTAAAAACATCCAATATTTTTATGATAAAACAT	binds	–
SFT-box1 (dsDNA) DNA 1: GAATCAAGACACGATGATATTGGGACGCTTTGGGGTGTAT DNA 2: ATACACCCCAAAGCGTCCCAATATCATCGTGTCTTGATTC	binds	–
SFT-box1-m (dsDNA) DNA 1: GAATCAAGACACGATGATTTTTTGACGCTTTGGGGTGTAT DNA 2: ATACACCCCAAAGCGTCAAAAAATCATCGTGTCTTGATTC	–	binding result [7]: no binding
SFT-box3 (dsDNA) DNA 1: GTTAGATTGAAGTTAGTAATTGGTTATCCCACCGATGGATT DNA 2: AATCCATCGGTGGGATAACCAATTACTAACTTCAATCTAAC	binds	–
SFT-box3-m (dsDNA) DNA 1: GTTAGATTGAAGTTAGTATTTTTTTATCCCACCGATGGATT DNA 2: AATCCATCGGTGGGATAAAAAAATACTAACTTCAATCTAAC	–	binding result [8]: no binding
